Target: mGCSF (R&D Systems Cat#414-CS) (mouse (printed as 'm')) (UniProt P09920)
Assay: cell-based or functional assay

Chain of UniProt P09920 (P09920 31-208 limits assumed): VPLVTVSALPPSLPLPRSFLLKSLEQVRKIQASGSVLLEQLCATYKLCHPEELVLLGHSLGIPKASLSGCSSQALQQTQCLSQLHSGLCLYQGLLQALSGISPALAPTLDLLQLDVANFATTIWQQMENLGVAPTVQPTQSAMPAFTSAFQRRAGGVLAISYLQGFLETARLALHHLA

| Substance | inhibition of mG-CSF proliferation of hG-CSFR BaF3 cells (MTS reduction), IC50 |
| --- | --- |
| Neutralizing anti-G-CSF (MAB414), R&D Systems (antibody) | 0.01 nM |
| soluble hG-CSFR-Fc protein (from UniProt Q99062 25-627) (Fc fusion) | 0.022 nM |

— patent US20140234303A1
